In series [1] the target is T1, PDGF-BB (Homo sapiens, UniProt P01127 P01127:82-190). Nature of the series: SPR; COs did not significantly accelerate dissociation; koff only in figure. The conditions noted are these: tags: R&D Systems; amine-coupled to SPR chip; chain copies: 2 (inferred, homodimer); three-stem junction.
The target of series [2] is T1, PDGF-BB. Nature of the series: SPR; virtually same as S1. The conditions noted are these: tags: R&D Systems; amine-coupled to SPR chip; chain copies: 2 (inferred, homodimer). How it is done:
(§1) The affinities of the aptamers were measured with surface plasmon resonance (SPR) spectrometry (SR7000DC, Reichert Analytical Instrument, Depew, N.Y.). Carboxyl group-functionalized sensor chips were purchased from the Reichert Analytical Instrument. The chips were initially activated with 0.2 M EDC/0.1 M NHS for 10 min After the activation step, PDGF-BB (20 μg/ml in 25 mM Na₂HPO₄ at pH 8.5) was flowed over the activated sensor chip for protein immobilization. Before the test, the system was equilibrated with the running buffer for 30 min. The running buffer was made of PBS buffer (pH 7.4) containing 0.05% Tween 20. During the test, the aptamer solution was flowed over the sensor chip at a flow rate of 30 μL/minute for 5 minutes. Subsequently, the flowing solution was switched to the running buffer for molecular dissociation. After each test, the sensor chip was regenerated by flowing 1 M NaCl in the channel for 2 minutes and then washed with the running buffer. To determine the dissociation constants, a series of aptamer solutions were prepared with the concentration ranging from 3.13 to 200 nM. The data were processed with the Scrubber 2.0 software (BioLogic Software, Australia). The responses from the reference channel were subtracted from the responses from analyte channel before data analysis to minimize the effects of reflective index changes, nonspecific binding, and instrument drift. The dissociation constant (KD) was determined by fitting the data to a simple biomolecular “1:1 binding” model.
(Surface plasmon resonance follows binding to a sensor surface in real time, without labels.)

Series [3] addresses T1, PDGF-BB. Put plainly: SPR; PBS, 0.05% Tween 20. The note with it: tags: R&D Systems, amine-coupled to SPR chip, chain copies: 2 (inferred, homodimer). How it is done:
The molecular interaction between PDGF-BB and the aptamers were studied by SPR spectrometry (SR7000DC, Reichert Analytical Instrument, Depew, N.Y.). PDGF-BB was immobilized onto a sensor chip via amide synthesis. An aqueous solution of NHS (0.0115 g/ml) and EDC (0.038 g/ml) was flowed over the sensor chip at a flow rate of 30 μL/min. After the EDC/NHS-mediated activation of the biochip surface for 10 min, 10 μg/mL of PDGF-BB solution (pH 8.5) was flowed over the chip surface for protein immobilization. Prior to the molecular recognition analysis, the sensor chip was equilibrated for 30 min with a phosphate-buffered saline (PBS) solution containing 0 05% Tween 20. During the binding analysis, 500 nM of binding solution containing either anti-PDGF-BB aptamer or its control was flowed over the biochip at 30 μL/min. The biochip was regenerated with 1 M of NaCl. The binding analysis was repeated twice to confirm the reproducibility. The equilibrium dissociation constant (KD) was calculated with direct curve fitting of the sensorgrams using the software provided by the manufacturer.
Polyacrylamide gel and anti-platelet-derived growth factor-BB (PDGF-BB) aptamer were used as a model system. […] The binding functionality was evaluated with surface plasmon resonance (SPR) analysis, which directly provides information on the binding affinity.

Series [4] addresses T1, PDGF-BB. Put plainly: SPR; PBS pH 7.4, 0.05% Tween 20; equilibrium analysis. The note with it: tags: R&D Systems; amine-coupled to SPR chip; chain copies: 2 (inferred, homodimer). How it is done: as §1
The interaction of a molecular pair was determined by not only molecular association but also molecular dissociation. The dissociation rate constant divided by the association rate constant is defined as the equilibrium dissociation constant (KD). Thus, a series of aptamer solutions were prepared and the aptamer-protein interactions were characterized by calculating the dissociation constants (FIG. 19). The concentration-dependent responses were processed to calculate KD using an equilibrium analysis. […]

Series [5] deals with T1, PDGF-BB. Nature of the series: SPR; reference for normalized response; PBS pH 7.4, 0.05% Tween 20. The conditions noted are these: tags: R&D Systems; amine-coupled to SPR chip; chain copies: 2 (inferred, homodimer); three-stem junction with 10-nt 5' tail. How it is done:
The affinities of the aptamers were measured with surface plasmon resonance (SPR) spectrometry (SR7000DC, Reichert Analytical Instrument, Depew, N.Y.). Carboxyl group-functionalized sensor chips were purchased from the Reichert Analytical Instrument. The chips were initially activated with 0.2 M EDC/0.1 M NHS for 10 min After the activation step, PDGF-BB (20 μg/ml in 25 mM Na₂HPO₄ at pH 8.5) was flowed over the activated sensor chip for protein immobilization. Before the test, the system was equilibrated with the running buffer for 30 min. The running buffer was made of PBS buffer (pH 7.4) containing 0.05% Tween 20. During the test, the aptamer solution was flowed over the sensor chip at a flow rate of 30 μL/minute for 5 minutes. Subsequently, the flowing solution was switched to the running buffer for molecular dissociation. After each test, the sensor chip was regenerated by flowing 1 M NaCl in the channel for 2 minutes and then washed with the running buffer. To determine the dissociation constants, a series of aptamer solutions were prepared with the concentration ranging from 3.13 to 200 nM. The data were processed with the Scrubber 2.0 software (BioLogic Software, Australia). […] The dissociation constant (KD) was determined by fitting the data to a simple biomolecular “1:1 binding” model.

Series [6] deals with T1, PDGF-BB. Nature of the series: SPR; PBS with 500 nM scrambled CO during dissociation. The conditions noted are these: tags: R&D Systems; amine-coupled to SPR chip; chain copies: 2 (inferred, homodimer). How it is done:
The molecular interaction between the PDGF-BB and its aptamer was studied using the SPR spectrometry (SR7000DC; Reichert Analytical Instrument; Depew, N.Y.). A carboxyl group-functionalized sensor chip (Reichert Analytical Instrument; Depew, N.Y.) was activated with NHS and EDC for PDGF-BB immobilization. The binding solution of 100 nM of either anti-PDGF-BB aptamers or scrambled aptamers was flowed over the biochip for 5 minutes (30 μL/min) for the analysis of molecular association. Subsequently, the washing solution (PBS, PBS containing 500 nM of CO, or PBS containing 500 nM of S—CO) was introduced over the biochip for another five minutes (30 μL/min) for the analysis of molecular dissociation. The biochip was regenerated by flowing 1 M of NaCl in the channel for two minutes (100 μL/min) followed by the PBS. The dissociation rate constant (koff) was obtained by fitting the binding profiles with the Scrubber 2.0 software as provided by the manufacturer.
Because real applications were involve not only aptamers and COs, but also target proteins, surface plasmon resonance (SPR) was used to directly examine the intermolecular hybridization-mediated protein dissociation (FIG. 11).

T1 sequence (P01127 82-190, one chain of several): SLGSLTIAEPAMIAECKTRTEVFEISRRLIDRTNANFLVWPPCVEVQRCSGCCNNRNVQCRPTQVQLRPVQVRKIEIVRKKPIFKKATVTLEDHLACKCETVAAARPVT

For the molecule ACAGGCTACGGCACGTAGAGCATCACCATGATCCTG (ssDNA) [36-nt truncated aptamer], the binding result in series [1] is on record as “binds”.

For CATGAGCCCTACAGGCTACGGCACGTAGAGCATCACCATGATCCTG (ssDNA) [S10], the binding result in series [2] is reported as “binds”.

Take TCGCACATGCACAGGCTACGGCACGTAGAGCATCACCATGATCCTG (ssDNA) [S6]: the binding result in series [2] was “binds”.

For orientation: Kd means the free concentration of one partner at which half of the binding sites on the other are occupied at equilibrium, for simple one-to-one binding. Consider GCGATACTCCACAGGCTACGGCACGTAGAGCATCACCATGATCCTG (ssDNA, 5'-Acrydite) [anti-PDGF-BB aptamer (higher affinity, 46-nt)], for which the Kd in series [3] (three-stem junction with 10-nt 5' tail) is 25 nM.

As to GCGATACTCCACAGGCTACGGCACGTAGAGCATCACCATGATCCTA (ssDNA) [M1], the Kd in series [4] is 27.6 nM.

Regarding GCGATACTCCACAGGCTACGGCACGTAGAGCATCACCATGATCTCA (ssDNA) [M3], the affinity in series [4], expressed as Kd, was 354 nM.

As for GCGATACTCCACAGGCTACGGCACGTAGAGCATCACCATGATCCCA (ssDNA) [M2], the Kd in series [4] was 109 nM.

GCGATACTCCACAGGCTACGGCACGTAGAGCATCACCATGATCCTG (ssDNA) [S1]: the binding result in series [5] was “binds”.

On to CCACGGTCTAACAGGCTACGGCACGTAGAGCATCACCATGATCCTG (ssDNA) [S3], for which the binding result in series [2] is listed as “binds”.

For the molecule GCGATACTCCACAGCTGACGGCACGGTAAGCATCACCATGATGTCC (ssDNA, 5'-Acrydite) [control (lower-affinity) aptamer], binding in series [3] was characterised by a dissociation constant (Kd) of 220 nM.

Regarding CAATTCCGCGACAGGCTACGGCACGTAGAGCATCACCATGATCCTG (ssDNA) [S2], the binding result in series [2] was “binds”.

With CGCCATTCAGACAGGCTACGGCACGTAGAGCATCACCATGATCCTG (ssDNA) [S4], the binding result in series [2] is “binds”.

Take GCAACTGCTCACAGGCTACGGCACGTAGAGCATCACCATGATCCTG (ssDNA) [S9]: in series [2], the binding result is on record as “binds”.

B1: 61-nt anti-PDGF-BB aptamer (ssDNA)
DNA: AAAAAAAAAAACAGGCTACGGCACGTAGAGCATCACCATGATCCTGTGACTTGAGCAAAAT
modifications: 5'-NH2
Broadly, the koff is the first-order rate constant of dissociation. A high value points to fast dissociation. B1 gave a koff in series [6] of 0.00065 s⁻¹.

These data come from US20130196915, “AFFINITY HYDROGELS FOR CONTROLLED PROTEIN RELEASE” (published 2013).
